# Laboratory results published in patent publication US9284369B2, “Inhibition of angiogenesis” (Genentech, Inc., priority 2007, dated 2016).
# B1: G-CSF: recombinant granulocyte-CSF: mouse or human (R&D Systems) or human Neupogen (Amgen) (protein, chains of the INN, looked up)
# chain: MTPLGPASSLPQSFLLKCLEQVRKIQGDGAALQEKLCATYKLCHPEELVLLGHSLGIPWAPLSSCPSQALQLAGCLSQLHSGLFLYQGLLQALEGISPELGPTLDTLQLDVADFATTIWQQMEELGMAPALQPTQGAMPAFASAFQRRAGGVLVASHLQSFLEVSYRVLRHLAQP
# Tested on: Bv8 and PKR2/EG-VEGFR2 expression
# Assay: White blood cells from G-CSF treated donors
# Assay type: in vivo, human
# Method: MaxiSorp® 96-well microwell plates (Nalge Nunc International, Rochester, N.Y.) were coated with 1.0 μg/ml 3F1 mouse monoclonal antibody (Genentech Inc.) in 50 mM carbonate buffer, pH 9.6, at 4° C. overnight. Plates were washed with PBS containing 0.05% polysorbate 20 and blocked with 0.5% bovine serum albumin, 15 p.p.m. (parts per million) Proclin 300 (Supelco, Bellefonte, Pa.) in PBS at room temperature for 1 h. After plates were washed, human Bv8 standards (0.020-2.5 ng/ml in 2-fold serial dilution, PeproTech, Rocky Hill, N.J.) and samples (minimum 1:10 dilution) in PBS containing 0.5% bovine serum albumin, 0.05% polysorbate 20, 15 p.p.m. Proclin 300 (Supelco, Bellefonte, Pa.) and 0.35N NaCl (sample buffer) were serially diluted and were added to each well. The plates were incubated for 2 hr at room temperature followed by a washing step. The bound Bv8 was detected by adding the secondary antibody, a biotinylated hamster anti-Bv8 antibody clone 3B8 (Genentech Inc.) followed by adding streptavidin-HRP (GE Healthcare, Buckinghamshire, United Kingdom) and 3,3′,5,5′-tetramethyl benzidine (Kirkegaard & Perry Laboratories, Gaithersburg, Md.) as the substrate. The reaction was stopped by adding 1 M phosphoric acid. Absorbance was read at 450 nm on a ThermoMax microplate reader (Molecular Devices, Menlo Park, Calif.). The titration curves of the standards were calculated using a four-parameter regression curve-fitting program (Genentech Inc). Human Bv8 concentration was calculated by extrapolating the optical density values of samples to the data range in the standard curve. The Bv8 ELISA was capable of measuring up to 10% lysis buffer and had the sensitivity to detect Bv8 as low as 0.20 ng/ml in tissue lysates. […] This ELISA could also detect mouse Bv8 but with less than 7% sensitivity.
# Peripheral white blood cells were obtained from normal donors after 4-5 days of G-CSF treatment by apheresis collections (Cellular Therapy and Cell Processing Facilities, Fred Hutchinson Cancer Research Center, Seattle, Wash.). […]
molecule,measurement,setting,value
B1,increase in Bv8 protein level in G-CSF mobilized mononuclear cells,"ELISA, vs untreated donors",10 fold
same,increase in Bv8 expression in G-CSF mobilized mononuclear cells,"donors treated 4-5 days, vs untreated donors",About 4.5 fold
same,induction of PKR2/EG-VEGFR2 expression in mononuclear cells,vs un-treated control samples,~2 fold
